The data set relates to Escherichia coli TOP10. The data set can be described thus: shrunken log2 fold change of peptide-encoding DNA abundance (4.5 h post-induction vs induction); higher = less antimicrobial activity (less host growth inhibition). As to conditions: time post-induction: 4.5 h; library: site-saturation at positions 5, 18, 19, 20.
In the case of RRIRSRPPRLPRPRPRPFSRPRP, the “shrunken log2 fold change” value is -0.347.

Regarding RRIRARPPRLPRPRPRPAHKPRP, the “shrunken log2 fold change” value turned out to be 0.664. Take RRIRMRPPRLPRPRPRPVTKPRP: the “shrunken log2 fold change” value is 0.253. In the case of RRIRLRPPRLPRPRPRPRDMPRP, the “shrunken log2 fold change” value amounted to 0.00118.

In the case of RRIRCRPPRLPRPRPRPYENPRP, the “shrunken log2 fold change” value was -0.145. With RRIRTRPPRLPRPRPRPVTSPRP the figure was -0.0276; with RRIRARPPRLPRPRPRPEMPPRP, 0.981; with RRIRDRPPRLPRPRPRPQHVPRP, 0.0427. With RRIRQRPPRLPRPRPRPAYGPRP the figure was -0.341; with RRIRMRPPRLPRPRPRPQCIPRP, 0.0157; with RRIRHRPPRLPRPRPRPDAVPRP, 0.0938. Regarding RRIRARPPRLPRPRPRPTETPRP, the “shrunken log2 fold change” value was determined as 1.11. Consider RRIRDRPPRLPRPRPRPSMSPRP, for which the “shrunken log2 fold change” value was -0.33. With RRIRCRPPRLPRPRPRPHHMPRP the figure was -1.36. With RRIRERPPRLPRPRPRPGPMPRP the figure was 0.224; with RRIRMRPPRLPRPRPRPDFIPRP, -0.0216. The value for RRIRTRPPRLPRPRPRPAFQPRP was 0.125. In the case of RRIRARPPRLPRPRPRPKRTPRP, the “shrunken log2 fold change” value was found to be 0.553.

Turning to RRIRDRPPRLPRPRPRPSRWPRP, the “shrunken log2 fold change” value came out at 0.0623. Consider RRIRPRPPRLPRPRPRPEKKPRP, for which the “shrunken log2 fold change” value was -0.044. RRIRGRPPRLPRPRPRPGDKPRP: the “shrunken log2 fold change” value was determined as 0.425. For RRIRGRPPRLPRPRPRPWKQPRP, the “shrunken log2 fold change” value amounted to 0.152. For the sequence RRIRARPPRLPRPRPRPLQMPRP, the “shrunken log2 fold change” value turned out to be 0.629. As for RRIRSRPPRLPRPRPRPCRGPRP, the “shrunken log2 fold change” value is -0.128.

In the case of RRIRNRPPRLPRPRPRPWVIPRP, the “shrunken log2 fold change” value was -0.552. RRIRQRPPRLPRPRPRPWTFPRP: the “shrunken log2 fold change” value is -0.0125.

Turning to RRIRKRPPRLPRPRPRPQMKPRP, the “shrunken log2 fold change” value was -0.0666.

With RRIRKRPPRLPRPRPRPAFVPRP, the “shrunken log2 fold change” value stood at 0.423. Regarding RRIRTRPPRLPRPRPRPPTEPRP, the “shrunken log2 fold change” value was 0.498. In the case of RRIRRRPPRLPRPRPRPGFFPRP, the “shrunken log2 fold change” value was determined as 0.268. Consider RRIRVRPPRLPRPRPRPCNYPRP, for which the “shrunken log2 fold change” value is -0.119. With RRIRFRPPRLPRPRPRPLRKPRP the figure was 0.465; with RRIRRRPPRLPRPRPRPYVWPRP, -0.216. Consider RRIRERPPRLPRPRPRPDASPRP, for which the “shrunken log2 fold change” value stood at 0.0331. For the sequence RRIRTRPPRLPRPRPRPFMKPRP, the “shrunken log2 fold change” value is -0.661. As for RRIRLRPPRLPRPRPRPPSPPRP, the “shrunken log2 fold change” value came out at 0.58.

For RRIRSRPPRLPRPRPRPFLAPRP, the “shrunken log2 fold change” value is -0.311. Consider RRIRCRPPRLPRPRPRPAFEPRP, for which the “shrunken log2 fold change” value was determined as 0.0704. Turning to RRIRKRPPRLPRPRPRPLAAPRP, the “shrunken log2 fold change” value amounted to 0.847. In the case of RRIRWRPPRLPRPRPRPSTWPRP, the “shrunken log2 fold change” value was -0.148.

Turning to RRIRNRPPRLPRPRPRPGKLPRP, the “shrunken log2 fold change” value was -0.0284. As to RRIRTRPPRLPRPRPRPQLYPRP, the “shrunken log2 fold change” value is -0.0657. Consider RRIRDRPPRLPRPRPRPCIAPRP, for which the “shrunken log2 fold change” value is 0.0755. For RRIRVRPPRLPRPRPRPAKPPRP, the “shrunken log2 fold change” value was 0.296. Take RRIRHRPPRLPRPRPRPFMYPRP: the “shrunken log2 fold change” value is -0.249. Regarding RRIRVRPPRLPRPRPRPFWGPRP, the “shrunken log2 fold change” value is -0.0605. In the case of RRIRMRPPRLPRPRPRPFHKPRP, the “shrunken log2 fold change” value turned out to be 0.0887. Regarding RRIRWRPPRLPRPRPRPRLMPRP, the “shrunken log2 fold change” value worked out at 0.44. With RRIRPRPPRLPRPRPRPVWLPRP, the “shrunken log2 fold change” value is 0.577. Consider RRIRHRPPRLPRPRPRPPEYPRP, for which the “shrunken log2 fold change” value was found to be 0.0328.

Take RRIRDRPPRLPRPRPRPGRLPRP: the “shrunken log2 fold change” value is 0.0513.

In the case of RRIRQRPPRLPRPRPRPYSAPRP, the “shrunken log2 fold change” value is -0.00273.

Consider RRIRTRPPRLPRPRPRPGQIPRP, for which the “shrunken log2 fold change” value is 0.0034.

On to RRIRERPPRLPRPRPRPGTHPRP, for which the “shrunken log2 fold change” value was -0.394.

RRIRSRPPRLPRPRPRPFPQPRP: the “shrunken log2 fold change” value is -0.201.

For RRIRPRPPRLPRPRPRPCNIPRP, the “shrunken log2 fold change” value was -0.554. On to RRIRRRPPRLPRPRPRPPNKPRP, for which the “shrunken log2 fold change” value came out at 0.333.

Regarding RRIRGRPPRLPRPRPRPQYQPRP, the “shrunken log2 fold change” value was -0.191.

With RRIRRRPPRLPRPRPRPGLKPRP, the “shrunken log2 fold change” value was 0.377. With RRIRKRPPRLPRPRPRPVRMPRP the figure was 0.0401; with RRIRNRPPRLPRPRPRPRNKPRP, -0.107; with RRIRWRPPRLPRPRPRPQISPRP, -0.22. For the sequence RRIRWRPPRLPRPRPRPCFIPRP, the “shrunken log2 fold change” value is -0.423. RRIRARPPRLPRPRPRPAHEPRP: the “shrunken log2 fold change” value was found to be 0.128. Consider RRIRIRPPRLPRPRPRPDKCPRP, for which the “shrunken log2 fold change” value is -0.0188. As to RRIRFRPPRLPRPRPRPFVAPRP, the “shrunken log2 fold change” value was -0.0081.

As for RRIRRRPPRLPRPRPRPYMCPRP, the “shrunken log2 fold change” value was determined as 0.154.

Turning to RRIRYRPPRLPRPRPRPIPKPRP, the “shrunken log2 fold change” value turned out to be 0.141. As for RRIRTRPPRLPRPRPRPAERPRP, the “shrunken log2 fold change” value was -0.104. Regarding RRIRDRPPRLPRPRPRPTGVPRP, the “shrunken log2 fold change” value is -0.0117. Consider RRIRTRPPRLPRPRPRPIVNPRP, for which the “shrunken log2 fold change” value is -0.655. Take RRIRDRPPRLPRPRPRPCPNPRP: the “shrunken log2 fold change” value is -0.02. For the sequence RRIRIRPPRLPRPRPRPQCDPRP, the “shrunken log2 fold change” value is -0.205.

Turning to RRIRTRPPRLPRPRPRPQRDPRP, the “shrunken log2 fold change” value stood at 0.347. RRIRMRPPRLPRPRPRPWCPPRP: the “shrunken log2 fold change” value was -0.101. On to RRIRARPPRLPRPRPRPVKQPRP, for which the “shrunken log2 fold change” value was -0.0614. With RRIRTRPPRLPRPRPRPHWPPRP, the “shrunken log2 fold change” value is -0.078. As to RRIRFRPPRLPRPRPRPAHIPRP, the “shrunken log2 fold change” value was -0.218. Take RRIRPRPPRLPRPRPRPKQYPRP: the “shrunken log2 fold change” value was -0.29. Turning to RRIRWRPPRLPRPRPRPDVPPRP, the “shrunken log2 fold change” value was -0.177.

With RRIRWRPPRLPRPRPRPYRRPRP, the “shrunken log2 fold change” value was -0.0183. The value for RRIRMRPPRLPRPRPRPMKHPRP was 0.0546; that for RRIRSRPPRLPRPRPRPRLKPRP was -0.0978; that for RRIRNRPPRLPRPRPRPSCYPRP was -0.181. With RRIRQRPPRLPRPRPRPLLGPRP, the “shrunken log2 fold change” value was 0.158. Consider RRIRPRPPRLPRPRPRPKFVPRP, for which the “shrunken log2 fold change” value is -0.0877. Take RRIRQRPPRLPRPRPRPEHAPRP: the “shrunken log2 fold change” value came to 0.0519. For the sequence RRIRWRPPRLPRPRPRPRMVPRP, the “shrunken log2 fold change” value turned out to be 0.155. As for RRIRDRPPRLPRPRPRPGWVPRP, the “shrunken log2 fold change” value worked out at 0.223. RRIRFRPPRLPRPRPRPDMDPRP: the “shrunken log2 fold change” value is -0.107.

As for RRIRKRPPRLPRPRPRPDPIPRP, the “shrunken log2 fold change” value turned out to be 0.129. Turning to RRIRGRPPRLPRPRPRPCWEPRP, the “shrunken log2 fold change” value was -0.000921.

For RRIRLRPPRLPRPRPRPQTTPRP, the “shrunken log2 fold change” value is -0.152. With RRIRYRPPRLPRPRPRPIPWPRP, the “shrunken log2 fold change” value is -0.545. RRIRGRPPRLPRPRPRPSCTPRP: the “shrunken log2 fold change” value stood at 0.565. With RRIRHRPPRLPRPRPRPSAQPRP the figure was 0.127. The value for RRIRNRPPRLPRPRPRPFHYPRP was -0.925. Turning to RRIRGRPPRLPRPRPRPMFKPRP, the “shrunken log2 fold change” value turned out to be 0.0694. In the case of RRIRNRPPRLPRPRPRPWGPPRP, the “shrunken log2 fold change” value is -0.37.

For RRIRYRPPRLPRPRPRPHVAPRP, the “shrunken log2 fold change” value was -0.312. The value for RRIRSRPPRLPRPRPRPMIRPRP was 0.0902; that for RRIRSRPPRLPRPRPRPMVPPRP was -0.0173; that for RRIRHRPPRLPRPRPRPVYWPRP was -0.262. Turning to RRIRYRPPRLPRPRPRPRNLPRP, the “shrunken log2 fold change” value is -0.036. For the sequence RRIRKRPPRLPRPRPRPYSPPRP, the “shrunken log2 fold change” value is -0.23. The value for RRIRVRPPRLPRPRPRPTQFPRP was 0.203; that for RRIRMRPPRLPRPRPRPIHQPRP was -0.108. With RRIRGRPPRLPRPRPRPCYWPRP, the “shrunken log2 fold change” value came out at 0.553. Take RRIRWRPPRLPRPRPRPTNIPRP: the “shrunken log2 fold change” value was -0.509.

On to RRIRYRPPRLPRPRPRPMCCPRP, for which the “shrunken log2 fold change” value was -3.16. Consider RRIRIRPPRLPRPRPRPGIKPRP, for which the “shrunken log2 fold change” value is -0.0876.

As to RRIRERPPRLPRPRPRPHPCPRP, the “shrunken log2 fold change” value was -0.0414. As for RRIRARPPRLPRPRPRPEHMPRP, the “shrunken log2 fold change” value amounted to 0.137. Regarding RRIRHRPPRLPRPRPRPSKIPRP, the “shrunken log2 fold change” value is -0.517. As to RRIRGRPPRLPRPRPRPRNCPRP, the “shrunken log2 fold change” value came to 0.0949. The value for RRIRPRPPRLPRPRPRPPYCPRP was -0.12. As to RRIRNRPPRLPRPRPRPHGTPRP, the “shrunken log2 fold change” value was -0.105. With RRIRWRPPRLPRPRPRPSFVPRP the figure was -0.284. RRIRTRPPRLPRPRPRPNWVPRP: the “shrunken log2 fold change” value was -0.159. In the case of RRIRPRPPRLPRPRPRPWNHPRP, the “shrunken log2 fold change” value is -0.485. Take RRIRFRPPRLPRPRPRPTHCPRP: the “shrunken log2 fold change” value is -0.0892. For RRIRMRPPRLPRPRPRPPWEPRP, the “shrunken log2 fold change” value was 0.601.

Regarding RRIRKRPPRLPRPRPRPDFHPRP, the “shrunken log2 fold change” value is -0.312. For RRIRERPPRLPRPRPRPQHEPRP, the “shrunken log2 fold change” value amounted to 0.199.

RRIRYRPPRLPRPRPRPVKNPRP: the “shrunken log2 fold change” value was -0.381.

(Values after the supplement of paper PMC9112550, “Optimization of the antimicrobial peptide Bac7 by deep mutational scanning” (BMC Biology, 2022).)
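Note: peptides expressed intracellularly from a pBAD plasmid library in pooled LB shake-flask culture, induced with 0.3% L-arabinose, DNA abundance read by NGS, three biological replicates, DESeq2 with apeglm shrinkage.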
